Source: the supplement of paper PMC7877785
± gives the uncertainty stated by the source.

Test: self-splicing fitness, log relative to wild type (ln ratio); higher = more splicing; Tetrahymena group I intron in knt gene, E. coli kanamycin selection, DiMSum; sequences stand for … in CUCUCU…GGAGGGAAAAGUUAUCAGGCAUGCACCUGGUAGCUAGUCUUUAAACCAAUAGAUUGCAUCGGUUUAAAAGGCAAGACCGUCAAAUUGCGGGAAAGGGGUCAACAGCCGUUCAGUACCAAGUCUCAGGGGAAACUUUGAGAUGGCCUUGCAAAGGGUAUGGUAAUAAGCUGACGGACAUGGUCCUAACCACGCAGCCAAGUCCUAAGUCAACAGAUCUUCUGUUGAUAUGGAUGCAGUUCACAGACUAAAUGUCGGUCGGGGAAGAUGUAUUCUUCUCAUAAGAUAUAGUCGGACCUCUCCUUAAUGGGAGCUAGCGGAUGAAGUGAUGCAACACUGGAGCCGCUGGGAACUAAUUUGUAUGCGAAAGUAUAUUGAUUAGUUUUGGAGUACUCGUGGUCG
Method in brief: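 Colonies from six replicate transformations of E. coli BL21(DE3) were pooled and amplicon-sequenced on an Illumina HiSeq 2500. The library placed an intron with all eight P1ex-region nucleotides randomised inside the knt kanamycin-resistance gene on pET-22b(+), and cells grew overnight at 37°C or 30°C on LB agar with or without 25 μg/mL kanamycin (plus 100 μg/mL carbenicillin, 50 μM IPTG, 0.2% rhamnose). Fitness is the DiMSum error-weighted combination of wild-type-normalised replicate fold changes, kanamycin versus none.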

Sequence	self-splicing fitness (ln) (30 °C)	self-splicing fitness (ln) (37 °C)
UCCGAGCAAUAUUACGACUA	-2.51 ± 0.28	-2.21 ± 0.27
UCCGAGCAAUAUUACGACUG	-2.56 ± 0.34	-1.76 ± 0.37
UCCGAGCAAUAUUACGAGGU	-3.89 ± 0.34	–
UCCGAGCAAUAUUACGAGUU	-2.64 ± 0.2	–
UCCGAGCAAUAUUACGAUAC	-4.73 ± 0.46	-2.96 ± 0.35
UCCGAGCAAUAUUACGAUUG	-3.7 ± 0.28	-1.77 ± 0.28
UCCGAGCAAUAUUACGCCUA	-2.13 ± 0.2	-2.6 ± 0.36
UCCGAGCAAUAUUACGCCUG	-2.12 ± 0.36	-1.84 ± 0.31
UCCGAGCAAUAUUACGGAAU	-1.91 ± 0.14	-1.77 ± 0.2
UCCGAGCAAUAUUACGGACU	-3.56 ± 0.21	-2.02 ± 0.14
UCCGAGCAAUAUUACGGCGG	-2.11 ± 0.14	-2.2 ± 0.15
UCCGAGCAAUAUUACGGCUA	-0.436 ± 0.096	-0.18 ± 0.1
UCCGAGCAAUAUUACGGGCG	-3.47 ± 0.35	-1.68 ± 0.36
UCCGAGCAAUAUUACGGUAU	-1.95 ± 0.15	-2.41 ± 0.23
UCCGAGCAAUAUUACGGUUA	-0.525 ± 0.058	-0.174 ± 0.063
UCCGAGCAAUAUUACGUAUA	-3.79 ± 0.29	-2.54 ± 0.24
UCCGAGCAAUAUUACGUCGC	-3.15 ± 0.28	-1.24 ± 0.3
UCCGAGCAAUAUUACGUCUG	-3.5 ± 0.24	–
UCCUAGCAAUAUUACGAACU	-2.54 ± 0.19	-1.6 ± 0.23
UCCUAGCAAUAUUACGACUA	-1.23 ± 0.38	-2.73 ± 0.41
UCCUAGCAAUAUUACGAGCU	-3.57 ± 0.37	-1.99 ± 0.38
UCCUAGCAAUAUUACGAGUG	-2.1 ± 0.1	-0.96 ± 0.1
UCCUAGCAAUAUUACGCACA	-2.29 ± 0.22	-1.45 ± 0.21
UCCUAGCAAUAUUACGCCAG	-3.13 ± 0.26	-2.68 ± 0.26
UCCUAGCAAUAUUACGCCAU	-2.5 ± 0.3	-0.725 ± 0.35

Sequence	self-splicing fitness (ln) (30 °C)	self-splicing fitness (ln) (37 °C)
UCCUAGCAAUAUUACGCCCG	–	-2.38 ± 0.42
UCCUAGCAAUAUUACGCCGG	–	-1.88 ± 0.3
UCCUAGCAAUAUUACGCGCC	-2.63 ± 0.17	-2.29 ± 0.24
UCCUAGCAAUAUUACGCGGU	-2.34 ± 0.17	-1.63 ± 0.18
UCCUAGCAAUAUUACGCGUG	-4.1 ± 0.15	-2.75 ± 0.12
UCCUAGCAAUAUUACGGAUG	-4.25 ± 0.34	-2.67 ± 0.2
UCCUAGCAAUAUUACGGGAA	-1.84 ± 0.21	-1.76 ± 0.14
UCCUAGCAAUAUUACGGGAG	-2.27 ± 0.25	-2.37 ± 0.35
UCCUAGCAAUAUUACGGGCU	-2.12 ± 0.1	-1.74 ± 0.13
UCCUAGCAAUAUUACGGGUA	-0.468 ± 0.088	-0.134 ± 0.12
UCCUAGCAAUAUUACGGGUU	-2.26 ± 0.13	-1.78 ± 0.15
UCCUAGCAAUAUUACGGUCA	-0.978 ± 0.079	-0.106 ± 0.089
UCCUAGCAAUAUUACGGUGC	-2.74 ± 0.17	-2.36 ± 0.18
UCCUAGCAAUAUUACGUAAU	-2.99 ± 0.15	-2.37 ± 0.18
UCCUAGCAAUAUUACGUCCU	-3.56 ± 0.15	-1.92 ± 0.14
UCCUAGCAAUAUUACGUUAA	-3.69 ± 0.28	-2.32 ± 0.26
UCCUAGCAAUAUUACGUUAG	-3.49 ± 0.2	-1.92 ± 0.23
UCGAAGCAAUAUUACGAAGA	-2.08 ± 0.25	-0.685 ± 0.19
UCGAAGCAAUAUUACGAAUG	-2.95 ± 0.17	-1.84 ± 0.19
UCGAAGCAAUAUUACGAUUC	-4.04 ± 0.39	-1.74 ± 0.26
UCGAAGCAAUAUUACGCAAA	–	-3.16 ± 0.4
UCGAAGCAAUAUUACGCCCC	-1.87 ± 0.44	–
UCGAAGCAAUAUUACGCGAA	-2.42 ± 0.17	-0.19 ± 0.13
UCGAAGCAAUAUUACGCGCA	0.425 ± 0.26	-0.635 ± 0.21
UCGAAGCAAUAUUACGCGGU	-2.73 ± 0.3	-2.48 ± 0.36

Sequence	self-splicing fitness (ln) (30 °C)	self-splicing fitness (ln) (37 °C)
UCGAAGCAAUAUUACGCGUG	-0.488 ± 0.07	-0.256 ± 0.078
UCGAAGCAAUAUUACGCUAA	–	-2.07 ± 0.36
UCGAAGCAAUAUUACGCUCG	-2.53 ± 0.31	-1.39 ± 0.27
UCGAAGCAAUAUUACGGCCA	-1.64 ± 0.16	0.195 ± 0.14
UCGAAGCAAUAUUACGGGCC	-2.98 ± 0.38	-0.79 ± 0.33
UCGAAGCAAUAUUACGGUCG	-0.668 ± 0.079	0.0856 ± 0.11
UCGAAGCAAUAUUACGGUUC	-4.34 ± 0.34	-2.79 ± 0.32
UCGAAGCAAUAUUACGUAAG	-1.85 ± 0.13	-0.0359 ± 0.13
UCGAAGCAAUAUUACGUACA	-0.691 ± 0.13	0.0696 ± 0.11
UCGAAGCAAUAUUACGUAUG	-2.78 ± 0.16	-1.33 ± 0.15
UCGAAGCAAUAUUACGUCCU	-0.664 ± 0.12	-0.253 ± 0.15
UCGAAGCAAUAUUACGUGAC	-2.44 ± 0.19	-2.88 ± 0.21
UCGAAGCAAUAUUACGUUAA	-2.99 ± 0.19	-0.482 ± 0.14
UCGAAGCAAUAUUACGUUUA	-3.07 ± 0.45	-0.87 ± 0.29
UCGCAGCAAUAUUACGAACC	-3.4 ± 0.4	-2.44 ± 0.41
UCGCAGCAAUAUUACGACCG	-0.544 ± 0.11	-0.235 ± 0.15
UCGCAGCAAUAUUACGACUC	-3.5 ± 0.27	-2.32 ± 0.27
UCGCAGCAAUAUUACGAGAG	-4.55 ± 0.36	-2.39 ± 0.18
UCGCAGCAAUAUUACGCACG	-2.26 ± 0.16	-0.255 ± 0.15
UCGCAGCAAUAUUACGGAUG	-1.44 ± 0.13	-2.55 ± 0.16
UCGCAGCAAUAUUACGGAUU	-3.46 ± 0.17	-2.51 ± 0.18
UCGCAGCAAUAUUACGGCGA	-3.35 ± 0.13	-3 ± 0.17
UCGCAGCAAUAUUACGGCGU	-2.06 ± 0.16	0.251 ± 0.11
UCGCAGCAAUAUUACGGUAC	–	-2.21 ± 0.31
UCGCAGCAAUAUUACGUAUC	-3.82 ± 0.37	-2.15 ± 0.27

Sequence	self-splicing fitness (ln) (30 °C)	self-splicing fitness (ln) (37 °C)
UCGCAGCAAUAUUACGUCAA	-2.69 ± 0.15	-0.094 ± 0.11
UCGCAGCAAUAUUACGUCGC	-3.2 ± 0.37	–
UCGCAGCAAUAUUACGUCGG	-2.74 ± 0.18	-1.79 ± 0.19
UCGCAGCAAUAUUACGUCUA	-0.18 ± 0.11	0.716 ± 0.12
UCGCAGCAAUAUUACGUGGA	-1.93 ± 0.11	-1.57 ± 0.084
UCGCAGCAAUAUUACGUGUA	-1.19 ± 0.082	-0.901 ± 0.083
UCGCAGCAAUAUUACGUUUU	-4.52 ± 0.36	-2.9 ± 0.23
UCGGAGCAAUAUUACGAAGG	-2.58 ± 0.45	–
UCGGAGCAAUAUUACGACGA	-1.41 ± 0.14	-1.32 ± 0.16
UCGGAGCAAUAUUACGAGCA	-2.39 ± 0.23	-1.51 ± 0.27
UCGGAGCAAUAUUACGAUGG	-3.2 ± 0.22	-2.1 ± 0.25
UCGGAGCAAUAUUACGCGUG	0.284 ± 0.17	-0.281 ± 0.17
UCGGAGCAAUAUUACGCUAG	-1.87 ± 0.21	-2.38 ± 0.27
UCGGAGCAAUAUUACGGCCA	-3.25 ± 0.44	-1.63 ± 0.35
UCGGAGCAAUAUUACGGCUC	-1.81 ± 0.29	–
UCGGAGCAAUAUUACGGUUG	-3.25 ± 0.24	-2.48 ± 0.33
UCGGAGCAAUAUUACGUACG	-1.21 ± 0.14	-0.867 ± 0.18
UCGGAGCAAUAUUACGUCUA	-2.52 ± 0.14	-1.89 ± 0.14
UCGGAGCAAUAUUACGUGUC	–	-2.26 ± 0.29
UCGGAGCAAUAUUACGUGUG	-3.08 ± 0.18	-1.63 ± 0.1
UCGGAGCAAUAUUACGUUCU	-3.17 ± 0.2	-1.41 ± 0.4
UCGUAGCAAUAUUACGAAAC	–	-2.91 ± 0.38
UCGUAGCAAUAUUACGAACG	-2.5 ± 0.21	-1.94 ± 0.23
UCGUAGCAAUAUUACGAAGA	-3.36 ± 0.5	–
UCGUAGCAAUAUUACGAAUA	–	-2.55 ± 0.27
